Data as given in US20120189639A1 (Merck Sharp & Dohme, published 2012).

T1: human GITR on naïve CD4+ T cells (human, UniProt Q9Y5U5 26-241)
T1 sequence: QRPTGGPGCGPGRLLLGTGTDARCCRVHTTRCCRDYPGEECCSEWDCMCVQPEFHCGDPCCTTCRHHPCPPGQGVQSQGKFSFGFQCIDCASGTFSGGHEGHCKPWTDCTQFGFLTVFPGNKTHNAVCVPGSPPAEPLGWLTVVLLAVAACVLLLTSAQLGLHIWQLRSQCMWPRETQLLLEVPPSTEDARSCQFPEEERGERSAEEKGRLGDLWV

T2: hGITR-hIgG (human, UniProt Q9Y5U5 26-161, limits assumed)
T2 construct: not shown: human IgG part of the fusion
T2 sequence: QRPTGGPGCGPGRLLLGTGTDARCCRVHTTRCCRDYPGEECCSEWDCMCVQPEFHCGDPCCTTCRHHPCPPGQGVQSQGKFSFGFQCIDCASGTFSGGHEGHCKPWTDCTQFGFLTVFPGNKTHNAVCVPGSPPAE

B1: 36E5 (antibody, V domains shown)
VH: EVNLVESGGGLVKPGGSLKVSCAASGFTFSSYAMSWVRQTPEKRLEWVASISSGGTTYYPDSVKGRFTISRDNARNILYLQMSSLRSEDTAMYYCARVGGYYDSMDYWGQGISVTDSS
VL: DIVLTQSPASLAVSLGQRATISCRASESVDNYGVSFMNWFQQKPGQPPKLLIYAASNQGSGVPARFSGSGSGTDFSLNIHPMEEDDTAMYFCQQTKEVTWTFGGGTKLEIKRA
notes: Parental rodent anti-human GITR monoclonal antibody from a hybridoma; kappa VL; also called 36E5.A5
B2: 3D6 (antibody, V domains shown)
VH: EVQLVESGGGLVQPGRSLKLSCAASGFTFSDYYMAWVRQAPTKGLEWVAYIHANGGSTYYRDSVRGRFSISRDNGKSTLYLQMDSLRSEDTATYYCTTGSFMYAADYYIMDAWGQGASVTVSS
VL: DVVMTQTPVSLSVSLGNQASISCRSSQSLLHSDGNTFLSWYFQKPGQSPQLLIYLASNRFSGVSNRFSGSGSGTDFTLKISRVEPEDLGVYYCFQHTHLPLTFGSGTKLEIKR
notes: Parental rodent anti-human GITR monoclonal antibody from a hybridoma; kappa VL; also called JL5.3D6; hybridoma PTA-9889
B3: 61F6 (antibody, V domains shown)
VH: QVQLQQSGAELARPGASVKMSCKASGYTFTSYTMHWVKQRPGQGLEWIGYINPRSVYTNYNQKFKDKATLTADKSSSTAYMQLSSLTSEDSAVYYCARLGGYYDTMDYWGQGTSVTVSS
VL: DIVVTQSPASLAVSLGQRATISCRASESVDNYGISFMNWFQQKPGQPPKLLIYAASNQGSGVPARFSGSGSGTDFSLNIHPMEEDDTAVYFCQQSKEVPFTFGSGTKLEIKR
notes: Parental rodent anti-human GITR monoclonal antibody from a hybridoma; kappa VL; also called 61F6.B9; hybridoma PTA-9893
B4: 61G6 (antibody, V domains shown)
VH: DVQLQESGPGLVKPSQSLSLTCTVTGYSITSDYAWNWIRQFPGNKLEWMGYISYSGSTRYNPSLKSRISITRDTSKNQFFLQLNSVTSEDTATYYCARQLGLRFFDYWGQGTTLTVSS
VL: QIVLTQSPALMSASPGEKVTMTCSANSTVNYMYWYQQKPRSSPKPCIYLTSNLASGVPARFSGSGSGTSYSLTISSMEAEDAATYYCQQWNSNPPTFGAGTKLELRR
notes: Parental rodent anti-human GITR monoclonal antibody from a hybridoma; kappa VL; also called 61G6.B6; hybridoma PTA-9891
B5: 6H6 (antibody, V domains shown)
VH: QVQLQQSGAELMKPGASVKISCKATGYTFSRYWIEWIKQRPGHGLEWIGEILPGSGSSNYNEKFKDKATFTADTSSNTAYMQFSSLTSEDSAVYYCARKVYYYAMDFWGQGTSVTVSS
VL: QIVLTQSPAIMSVSLGERVTVTCTASSSVSSSYFHWYQQKPGSSPKLWIYSTSNLASGVPARFSGSGSGTSYSLTISTMEAEDAATYYCHQYHRSPRTFGGGTKLEIKR
notes: Parental rodent anti-human GITR monoclonal antibody from a hybridoma; kappa VL; also called 6H6.C3; hybridoma PTA-9892

The binders below were run against T1, human GITR on naïve CD4+ T cells (assay: cell-based or functional assay).

In order of rising “proliferation of naïve CD4+ T cells, mean, at 0.04 ng/mL Ab” value:
1. B1  27500
2. B4  31000
3. B2  33300
4. B3  34900
5. B5  38500

In order of falling “proliferation of naïve CD4+ T cells, mean, at 0.15 ng/mL Ab” value:
1. B4  35600
2. B5  33400
3. B3  32000
4. B2  30800
5. B1  26200

In order of rising “proliferation of naïve CD4+ T cells, mean, at 0.61 ng/mL Ab” value:
1. B5  30200
2. B1  31000
3. B4  32600
4. B2  33800
5. B3  37600

In order of rising “proliferation of naïve CD4+ T cells, mean, at 2.4 ng/mL Ab” value:
1. B4  28900
2. B5  35600
3. B2  43100
4. B1  47500
5. B3  61300

In order of falling “proliferation of naïve CD4+ T cells, mean, at 9.8 ng/mL Ab” value:
1. B3  96300
2. B2  79300
3. B1  78700
4. B5  60000
5. B4  34300

In order of rising “proliferation of naïve CD4+ T cells, mean, at 39.1 ng/mL Ab” value:
1. B4  40100
2. B1  90300
3. B5  104000
4. B3  107000
5. B2  124000

In order of rising “proliferation of naïve CD4+ T cells, mean, at 156 ng/mL Ab” value:
1. B4  45600
2. B1  97100
3. B3  108000
4. B2  109000
5. B5  123000

In order of rising “proliferation of naïve CD4+ T cells, mean, at 625 ng/mL Ab” value:
1. B4  75100
2. B1  82100
3. B3  105000
4. B2  111000
5. B5  120000

In order of rising “proliferation of naïve CD4+ T cells, mean, at 2500 ng/mL Ab” value:
1. B1  71800
2. B3  96300
3. B5  107000
4. B2  109000
5. B4  116000

In order of rising “proliferation of naïve CD4+ T cells, mean, at 10000 ng/mL Ab” value:
1. B1  83800
2. B5  91900
3. B3  93400
4. B2  96200
5. B4  135000

These binders were tested against T2, hGITR-hIgG (assay: BIAcore SPR; hGITR-hIgG capture antigen, mAb analyte).
Protocol: (§1) BIAcore determinations are performed essentially as described at Example 4 of co-pending, commonly assigned U.S. patent application Ser. No. 11/511,635 (filed 29 Aug. 2006). Briefly, binding partners are immobilized on a BIAcore CM5 sensor chip using standard amine-coupling procedure. Kinetic constants for the various interactions are determined using BIAevaluation software 3.1. The Kd is determined using the calculated dissociation and association rate constants.

In order of rising koff:
1. B4  6.9e-05 s⁻¹
2. B1  0.000177 s⁻¹
3. B2  0.000766 s⁻¹
4. B5  0.000919 s⁻¹
5. B3  0.0135 s⁻¹

In order of falling kon:
1. B3  1.11e+06 M⁻¹ s⁻¹
2. B1  864000 M⁻¹ s⁻¹
3. B5  610000 M⁻¹ s⁻¹
4. B2  95000 M⁻¹ s⁻¹
5. B4  4000 M⁻¹ s⁻¹

Each binder was assayed against T2, hGITR-hIgG (assay: BIAcore SPR; hGITR-hIgG capture antigen, mAb analyte; apparent Kd).
Protocol: as §1

In order of falling Kd:
1. B4  15.6 nM
2. B3  12.2 nM
3. B2  8.05 nM
4. B5  1.51 nM
5. B1  0.205 nM
